Experimental data taken from publication PMC3075217.

Target: rat collagen type I (rat) (UniProt P02454)
Test: ELISA; rat collagen type I coated on a 96-well plate; rPnxIIIA variants applied at 10 μg/ml; detected with anti-6x Histidine tag monoclonal antibody, read as A620

Chain of UniProt P02454 (P02454 152-1207, chain 1 of 2): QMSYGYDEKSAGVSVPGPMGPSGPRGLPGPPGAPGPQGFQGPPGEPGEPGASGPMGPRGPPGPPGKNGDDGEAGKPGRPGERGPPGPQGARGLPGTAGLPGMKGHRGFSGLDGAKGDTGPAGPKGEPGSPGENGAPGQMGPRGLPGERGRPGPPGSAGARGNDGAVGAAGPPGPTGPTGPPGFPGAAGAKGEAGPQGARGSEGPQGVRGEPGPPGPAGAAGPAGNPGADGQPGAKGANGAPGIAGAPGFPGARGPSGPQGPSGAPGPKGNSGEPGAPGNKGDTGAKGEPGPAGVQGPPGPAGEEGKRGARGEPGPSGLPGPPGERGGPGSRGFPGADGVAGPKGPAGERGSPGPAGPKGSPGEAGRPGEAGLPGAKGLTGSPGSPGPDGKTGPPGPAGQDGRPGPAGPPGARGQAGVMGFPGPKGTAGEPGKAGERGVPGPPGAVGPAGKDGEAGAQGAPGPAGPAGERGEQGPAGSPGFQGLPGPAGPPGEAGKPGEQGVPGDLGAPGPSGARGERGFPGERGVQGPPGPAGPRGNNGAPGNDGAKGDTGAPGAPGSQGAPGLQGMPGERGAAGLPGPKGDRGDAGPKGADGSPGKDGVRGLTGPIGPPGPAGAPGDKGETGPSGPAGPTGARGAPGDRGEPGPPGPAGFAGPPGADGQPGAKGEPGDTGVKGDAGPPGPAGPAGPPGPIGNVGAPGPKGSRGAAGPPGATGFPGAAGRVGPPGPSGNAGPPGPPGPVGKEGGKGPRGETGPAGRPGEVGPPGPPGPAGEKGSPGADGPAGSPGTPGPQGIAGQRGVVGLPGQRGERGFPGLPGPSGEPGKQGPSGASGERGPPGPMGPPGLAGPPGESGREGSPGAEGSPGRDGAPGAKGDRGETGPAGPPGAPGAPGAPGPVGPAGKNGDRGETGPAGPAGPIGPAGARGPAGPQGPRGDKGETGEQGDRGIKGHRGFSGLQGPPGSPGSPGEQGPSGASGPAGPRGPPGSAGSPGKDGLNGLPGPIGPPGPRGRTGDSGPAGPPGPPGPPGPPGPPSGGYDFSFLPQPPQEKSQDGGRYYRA
Chain of UniProt P02454 (P02466 86-1125, chain 2 of 2, further chain): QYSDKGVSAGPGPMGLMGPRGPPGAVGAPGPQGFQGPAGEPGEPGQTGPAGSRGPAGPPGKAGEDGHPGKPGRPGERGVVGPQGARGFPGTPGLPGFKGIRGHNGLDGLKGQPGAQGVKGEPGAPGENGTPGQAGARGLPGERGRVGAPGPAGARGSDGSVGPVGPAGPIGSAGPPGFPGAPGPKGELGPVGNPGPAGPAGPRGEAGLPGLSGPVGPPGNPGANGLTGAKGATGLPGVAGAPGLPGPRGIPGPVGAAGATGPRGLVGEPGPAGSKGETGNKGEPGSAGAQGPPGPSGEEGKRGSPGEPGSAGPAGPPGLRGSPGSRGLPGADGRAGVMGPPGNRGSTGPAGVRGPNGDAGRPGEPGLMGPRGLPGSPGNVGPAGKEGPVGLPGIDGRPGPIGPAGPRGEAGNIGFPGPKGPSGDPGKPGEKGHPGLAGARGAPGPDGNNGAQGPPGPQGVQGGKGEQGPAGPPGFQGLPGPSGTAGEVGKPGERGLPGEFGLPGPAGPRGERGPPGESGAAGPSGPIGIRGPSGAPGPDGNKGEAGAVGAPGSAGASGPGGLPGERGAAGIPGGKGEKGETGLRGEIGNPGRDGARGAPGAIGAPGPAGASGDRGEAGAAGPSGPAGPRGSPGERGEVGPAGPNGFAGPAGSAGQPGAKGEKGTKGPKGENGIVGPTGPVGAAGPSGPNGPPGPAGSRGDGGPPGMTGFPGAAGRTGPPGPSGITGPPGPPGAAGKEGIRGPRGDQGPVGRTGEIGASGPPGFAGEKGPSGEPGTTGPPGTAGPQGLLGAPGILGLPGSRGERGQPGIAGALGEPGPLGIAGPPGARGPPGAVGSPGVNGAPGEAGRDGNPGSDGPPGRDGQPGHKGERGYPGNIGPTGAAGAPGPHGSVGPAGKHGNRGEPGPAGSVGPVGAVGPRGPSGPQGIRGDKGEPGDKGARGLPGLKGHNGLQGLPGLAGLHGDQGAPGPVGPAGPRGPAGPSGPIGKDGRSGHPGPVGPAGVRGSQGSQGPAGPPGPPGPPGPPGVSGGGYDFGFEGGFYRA

“Recombinant PnxIIIA protein (natural protein)” gave an A620 at 10 μg/ml of 0.55 A620.
